The values below come from patent publication US20060024291A1 (DOHENY EYE INSTITUTE, published 2006).

The experiment addresses T1, protocadherin-42 (human, UniProt Q08174 58-1060).
T1 construct: Full length human cDNA expressed in mouse L cells (pRC/RSV-pc42); tested on the transfected cells or in their extracts; also called pc42; human pc42
T1 sequence: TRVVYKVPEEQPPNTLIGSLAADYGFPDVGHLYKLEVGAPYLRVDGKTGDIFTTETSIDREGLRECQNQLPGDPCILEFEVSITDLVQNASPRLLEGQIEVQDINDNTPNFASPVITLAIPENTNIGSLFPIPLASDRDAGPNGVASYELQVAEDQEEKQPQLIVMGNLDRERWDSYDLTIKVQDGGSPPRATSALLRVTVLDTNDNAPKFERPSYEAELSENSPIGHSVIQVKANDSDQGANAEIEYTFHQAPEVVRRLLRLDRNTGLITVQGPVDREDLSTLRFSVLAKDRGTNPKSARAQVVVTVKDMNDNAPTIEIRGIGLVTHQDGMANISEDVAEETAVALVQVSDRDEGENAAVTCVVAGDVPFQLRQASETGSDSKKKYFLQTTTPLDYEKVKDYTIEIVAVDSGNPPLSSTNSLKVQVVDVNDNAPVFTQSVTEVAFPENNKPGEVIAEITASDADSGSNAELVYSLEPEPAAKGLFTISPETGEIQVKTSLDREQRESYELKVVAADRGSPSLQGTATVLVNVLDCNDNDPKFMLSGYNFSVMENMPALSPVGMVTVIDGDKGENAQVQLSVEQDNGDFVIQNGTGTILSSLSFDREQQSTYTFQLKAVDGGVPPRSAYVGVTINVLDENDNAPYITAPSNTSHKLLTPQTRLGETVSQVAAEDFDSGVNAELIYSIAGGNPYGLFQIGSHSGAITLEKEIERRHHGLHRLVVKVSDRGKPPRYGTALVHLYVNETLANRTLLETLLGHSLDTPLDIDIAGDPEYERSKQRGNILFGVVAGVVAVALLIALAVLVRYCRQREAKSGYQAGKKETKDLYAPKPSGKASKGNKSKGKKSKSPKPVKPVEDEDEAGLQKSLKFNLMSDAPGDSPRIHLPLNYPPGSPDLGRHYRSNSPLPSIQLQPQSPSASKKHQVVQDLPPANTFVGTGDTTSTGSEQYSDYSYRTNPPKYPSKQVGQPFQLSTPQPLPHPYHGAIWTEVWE
Briefly: mixed cell aggregation assay, DiO-labelled pc43 transfectants with unlabelled pc42 transfectants. The method, then:
The cell aggregation properties of the transfected L cells expressing protocadherin proteins were examined. Transfected L cells were cultured in Dulbecco's Modified Eagles Medium (DMEM) (Gibco, Grand Island, N.Y.) supplemented with 10% fetal bovine serum at 37° C. in 5% CO₂. Cells grown near confluence were treated with 0.01% trypsin in the presence of 1 mM EGTA for 25 minutes on a rotary shaker at 37° C. and collected by centrifugation. The cells were washed three times with Ca²⁺ free HEPES-buffered saline (HBS) after adding soybean trypsin inhibitor, and were resuspended in HBS containing 1% BSA. The cell aggregation assay [Urushihara et al., Dev. Biol., 70: 206-216 (1979)] was performed by incubating the resuspended cells in a 1:1 mixture of DMEM and HBS containing 1% BSA, 2 mM CaCl₂ and 20 μg/ml of deoxyribonucelease on a rotary shaker at 37° C. for 30 minutes to 6 hours.
This is in contrast to the cell aggregation that occurs with classic cadherins in similar experiments (Nagafuchi et al., supra, and Hatta et al., supra). […] Similar results were obtained when single cell suspensions of transfected cells were prepared by trypsin treatment in the presence of Ca²⁺. No re-aggregation was observed under the same conditions when untransfected L cells or L cells transfected with pRC/RSV vector alone were tested.

B1: protocadherin-43 (receptor)
chain: VIHYEIPEEREKGFAVGNVVANLGLDLGSLSARRFPVVSGASRRFFEVNRETGEMFVNDRLDREELCGTLPSCTVTLELVVENPLELFSVEVVIQDINDNNPAFPTQEMKLEISEAVAPGTRFPLESAHDPDLGSNSLQTYELSRNEYFALRVQTREDSTKYAELVLERALDREREPSLQLVLTALDGGTPALSASLPIHIKVLDANDNAPVFNQSLYRARVPGGCTSGTRVVQVLATDLDEGPNGEIIYSFGSHNRAGVRQLFALDLVTGMLTIKGRLDFEDTKLHEIYIQAKDKGANPEGAHCKVLVEVVDVNDNAPEITVTSVYSPVPEDASGTVIALLSVTDLDAGENGLVTCEVPPGLPFSLTSSLKNYFTLKTSADLDRETVPEYNLSITARDAGTPSLSALTIVRVQVSDINDNPPQSSQSSYDVYIEENNLPGAPILNLSVWDPDAPQNARLSFFLLEQGAETGLVGRYFTINRDNGIVSSLVPLDYEDRREFELTAHISDGGTPVLATNISVNIFVTDRNDNAPQVLYPRPGGSSVEMLPRGTSAGHLVSRVVGWDADAGHNAWLSYSLFGSPNQSLFAIGLHTGQISTARPVQDTDSPRQTLTVLIKDNGEPSLSTTATLTVSVTEDSPEARAEFPSGSAPREQKKNLTFYLLLSLILVSVGFVVTVFGVIIFKVYKWKQSRDLYRAPVSSLYRTPGPSLHADAVRGGLMSPHLYHQVYLTTDSRRSDPLLKKPGAASPLASRQNTLRSCDPVFYRQVLGAESAPPGQQAPPNTDWRFSQAQRPGTSGSQNGDDTGTWPNNQFDTEMLQAMILASASEAADGSSTLGGGAGTMGLSARYGPQFTLQHVPDYRQNVYIPGSNAH
notes: Full length human cDNA expressed in mouse L cells (pRC/RSV-pc43); tested on the transfected cells or in their extracts; also endogenous pc43 in human tissue sections; also called pc43; human pc43
For B1, the binding result is “no binding”.
